Like-named read-outs stand apart in the source and are kept apart here.
Assays:
[1] = target: HLA-DR DRB1*1302 (human); assay: radioligand inhibition, purified HLA-DR
[2] = target: HLA-DR DRB5*0101 (human); assay: radioligand inhibition, purified HLA-DR
[3] = target: HLA-DR DRB1*0901 (human); assay: radioligand inhibition, purified HLA-DR
[4] = target: HLA-DR DRB1*0701 (human); assay: radioligand inhibition, purified HLA-DR
[5] = target: HLA-DR DRB1*1501 (human); assay: radioligand inhibition, purified HLA-DR
[6] = target: purified HLA-DR molecule DRB1*0901 (human); assay: radioligand inhibition, purified HLA-DR
[7] = target: purified HLA-DR molecule DRB1*1302 (human); assay: radioligand inhibition, purified HLA-DR
[8] = target: purified HLA-DR molecule DRB5*0101 (human); assay: radioligand inhibition, purified HLA-DR
[9] = target: T1, HLA-DR DRB4*0101 (human); assay: radioligand inhibition, purified HLA-DR; conditions: remark: other sources report otherwise
T1 chain 1: not shown
T1 chain 2: not shown

[10] = target: T2, HLA-DR DRB1*0101 (human); assay: radioligand competition, purified HLA-DR; conditions: remark: other sources report otherwise
T2 chain 1: not shown
T2 chain 2: not shown

[11] = target: T3, HLA-DR DRB1*0405 (human); assay: radioligand competition, purified HLA-DR; conditions: remark: other sources report otherwise
T3 chain 1: not shown
T3 chain 2: not shown

[12] = target: T4, HLA-DR DRB1*0404 (human); assay: radioligand competition, purified HLA-DR; conditions: remark: other sources report otherwise
T4 chain 1: not shown
T4 chain 2: not shown

[13] = target: T5, HLA-DR DRB1*0401 (human); assay: radioligand inhibition, purified HLA-DR; conditions: remark: other sources report otherwise
T5 chain 1: not shown
T5 chain 2: not shown

[14] = target: at least four different HLA-DR variants (of 15 different purified HLA-DR molecules); assay: radioligand inhibition, purified HLA-DR
[15] = target: T6, HLA-DR DRB1*1302 (human); assay: radioligand inhibition, purified HLA-DR; conditions: remark: other sources report otherwise
T6 chain 1: not shown
T6 chain 2: not shown

[16] = target: T7, HLA-DR DRB1*0802 (human); assay: radioligand inhibition, purified HLA-DR; conditions: remark: other sources report otherwise
T7 chain 1: not shown
T7 chain 2: not shown

[17] = target: T5, HLA-DR DRB1*0401 (human); assay: radioligand competition, purified HLA-DR; conditions: remark: other sources report otherwise

Molecule: Peptide 9019.0126, CEA.354
- IC50 [1]: 1920 nM
- IC50 [2]: 2280 nM

Molecule: Peptide 9019.0118, CEA.176
- IC50 [3]: 1910 nM

Molecule: Peptide 9019.0005, CEA.122
- IC50 [1]: 9960 nM
- IC50 [4]: 6.34 µM

Molecule: Peptide 9019.0115, CEA.126
- IC50 [1]: 394 nM
- IC50 [5]: 376 nM

Molecule: Peptide 9019.0118 (CEA.176)
- IC50 [6]: 1910 nM

Molecule: Peptide 9019.0126 (CEA.354)
- IC50 [7]: 1920 nM
- IC50 [8]: 2280 nM

Molecule: Peptide 9019.0009, Cyclin D1.129
- IC50 [1]: 3490 nM

Molecule: GYVIGTQQATPGPAY [9019.0110]
- IC50 [9]: 6.3 nM

Molecule: TEILKGGVLIQRNPQ [Peptide 9019.0039]
- IC50 [10]: 71 nM

Molecule: CYGLGMEHLREVRAV [Peptide 9019.0044]
- IC50 [10]: 139 nM

Molecule: SDSVILNVLYGPDAP [Peptide 9019.0119]
- IC50 [11]: 1450 nM

Molecule: VCGIQNSVSANRSDP [Peptide 9019.0135]
- IC50 [12]: 26 nM
- IC50 [11]: 1850 nM

Molecule: KELAVFREKVTEQHR [9019.0186]
- IC50 [13]: 21 nM

Molecule: AQTFVALCATDVKFI [Peptide 9019.0168, Cyclin D1.182]
- IC50 [14]: < 1000 nM

Molecule: TTPVTGASPGGLREL [Peptide 9019.0037, Her2/neu.126]
- IC50 [15]: 605 nM

Molecule: HNQVRQVPLQRLRIV [Peptide 9019.0034, Her2/neu.88]
- IC50 [14]: < 1000 nM
- IC50 [16]: 95 nM

Molecule: KLCIYTDNSIRPEEL [Peptide 9019.0159]
- IC50 [17]: 95 nM
- IC50 [11]: 3170 nM

Molecule: GTDMKLRLPASPETH [Peptide 9019.0027, Her2/neu.28]
- IC50 [4]: 6.81 µM
